Measurements as given in US20230137139A1, “BIOSYNTHESIS OF CANNABINOIDS AND C[…]” (priority 2020, published 2023).

The molecules below were run on CBCA production (assay: In vivo TS activity assay, Example 4 CBCAS enzymes with and without signal peptides, no pH adjustment). Details: strains with (Y) or without (N) N-terminal and C-terminal signal peptides; no pH adjustment at Day 4; S. cerevisiae.
Assay type: cell-based
Method: An assay to detect TS activity was conducted as follows: each thawed glycerol stock of candidate CBCAS transformants was stamped into a well of YEP+4% dextrose media. Samples were incubated at 30° C. in a shaking incubator for 2 days. A portion of each of the resulting cultures was stamped into a well of YEP+4% galactose+1 mM olivetolic acid (FIG. 1 Structure 6a). Samples were incubated at 20° C. and shaken in a shaking incubator for 4 days. Every 24 hours during those 4 days, 2% galactose and 1 mM olivetolic acid were spiked into the cultures. Sodium citrate buffer adjusted to pH 5.5 was added to each well at a final concentration of 100 mM. Samples were incubated at 20° C. and shaken in a shaking incubator for 2 days. A portion of each of the resulting production cultures was stamped into a well of phosphate buffered saline (PBS). Optical measurements were taken on a plate reader, with absorbance measured at 600 nm and fluorescence at 528 nm with 485 nm excitation. Samples were incubated at 30° C. in a shaking incubator for 2 days. 100% methanol was stamped into the production cultures in half-height deepwell plates. Plates were heat sealed and frozen. Samples were then thawed for 30 min and spun down at 4° C. A portion of the supernatant was stamped into half-area 96 well plates. CBCA, THCA, and CBDA production in the samples was quantified via liquid chromatography-mass spectrometry (LC-MS).
A library of 20 CBCAS enzymes selected from Example 1 and 3 was synthesized, including versions of the CBCAS enzymes with and without the N-terminal MFalpha2 signal peptide (SEQ ID NO: 16) and C-terminal HDEL signal peptide (SEQ ID NO: 17). Each candidate enzyme expression construct was transformed into an S. cerevisiae CEN.PK strain that also expressed a prenyltransferase enzyme capable of catalyzing reaction R^4 in FIG. 2. Strain t861555 expressing the A. niger CBCAS identified in Example 1, carrying both the Mfalpha2 and HDEL signal peptides was included in the library screen as a positive control for enzyme activity. Strain t861565 expressed the same A. niger CBCAS without the Mfalpha2 and HDEL signal peptides.
The strains were screened using the assay described in Example 1 with the following exception: at Day 4 samples were not subjected to a pH adjustment and a further 2 days of incubation at 20° C.

| Molecule | Average CBCA |
| --- | --- |
| t861577 (protein) MGNTTSIAGRDCLISALGGNSALAAFPNQLLWTADVHEYNLNLPVTPAAITYPETAEQIAGIVKCASDYDYKVQARSGGHSFGNYGLGGTDGAVVVDMKHFNQFSMDDQTYEAVIGPGTTLNDVDIELYNNGKRAMAHGVCPTIKTGGHFTIGGLGPTARQWGLALDHVEEVEVVLANSSIVRASNTQNQDVLFAVKGAAADFGIVTEFKVRTEPAPGLAVQYSYTFNLGSTAEKAQFVKDWQSFISAKNLTRQFYNNMVIFDGDIILEGLFFGSKEQYDALGLEDHFAPKNPGNILVLTDWLGMVGHALEDTILKLVGNTPTWFYAKSLGFRQDTLIPSAGIDEFFEYIDNHTAGTPAWFVTLSLEGGAINDVAEDATAYAHRDVLFWVQLFMVNPLGPISETTYEFTDGLYDVLARAVPESVGHAYLGCPDPRMENAPQKYWRTNLPRLQELKEELDPKNTFHHPQGVIPA | 36869.19 µg/L |
| t861587 (protein) MGNTTSIAGRDCLVSALGGNSALAAFPNQLLWTADVHEYNLNLPVTPAAITYPETAEQIAGIVKCASDYDYKVQARSGGHSFGNYGLGGTDGAVVVDMKHFNQFSMNDQTYEAVIGPGTTLNDVDIELYNNGKRAMAHGVCPTIKTGGHFTIGGLGPTARQWGLALDHVEEVEVVLANSSIVRASNTQNQDVFFAVKGAAADFGIVTEFKVRTEPAPGLAVQYSYTFNLGSTAEKAQFVKDWQSFISAKNLTRQFYNNMVIFDGDIILEGLFFGSKEQYDALGLEDHFAPKNPGNILVLTDWLGMVGHALEDTILKLVGNTPTWFYAKSLGFRQDTLIPSAGIDEFFEYIANHTAGTPAWFVTLSLEGGAINDVAEDATAYAHRDVLFWVQLFMVNPLGPISETTYEFTDGLYDVLARAVPESVGHAYLGCPDPRMENAPQKYWRTNLPRLQELKEELDPKNTFHHPQGVIPA | 82883.01 µg/L |
| t861592 (protein) MGNTTSIAGRDCLISALGGNSALAAFPNQLLWTADVHEYNLNLPVTPAAITYPETAEQIAGIVKCASDYDYKVQARSGGHSFGNYGLGGTDGAVVVDMKHFNQFSMDDQTYEAVIGPGTTLNDVDIELYNNGKRAMAHGVCPTIKTGGHFTIGGLGPTARQWGLALDHVEEVEVVLANSSIVRASNTQNQDVLFAVKGAAADFGIVTEFKVRTEPAPGLAVQYSYTFNLGSTAEKAQFVKDWQSFISAKNLTRQFYNNMVIFDGDIILEGLFFGSKEQYDALGLEDHFAPKNPGNILVLTDWLGMVGHALEDTILKLVGNTPTWFYAKSLGFRQDTLIPSAGIDEFFEYIDNHTAGTPAWFVTLSLEGGAINDVAEDATAYAHRDVLFWVQLFMVNPLGPISETTYEFTDGLYDVLARAVPESVGHAYLGCPDPRMENAPQKYWRTNLPRLQELKEELDPKNTFHHPQGVIPA | 74584.36 µg/L |
| t861566 (protein) MGNTTSIAGRDCLVSALGGNSALAAFPNQLLWTADVHEYNLNLPVTPAAITYPETAEQIAGIVKCASDYDYKVQARSGGHSFGNYGLGGTDGAVVVDMKHFNQFSMNDQTYEAVIGPGTTLNDVDIELYNNGKRAMAHGVCPTIKTGGHFTIGGLGPTARQWGLALDHVEEVEVVLANSSIVRASNTQNQDVFFAVKGAAADFGIVTEFKVRTEPAPGLAVQYSYTFNLGSTAEKAQFVKDWQSFISAKNLTRQFYNNMVIFDGDIILEGLFFGSKEQYDALGLEDHFAPKNPGNILVLTDWLGMVGHALEDTILKLVGNTPTWFYAKSLGFRQDTLIPSAGIDEFFEYIANHTAGTPAWFVTLSLEGGAINDVAEDATAYAHRDVLFWVQLFMVNPLGPISETTYEFTDGLYDVLARAVPESVGHAYLGCPDPRMENAPQKYWRTNLPRLQELKEELDPKNTFHHPQGVIPA | 61918.09 µg/L |
| t861583 (protein) MGNTTSIAGRDCLISALGGNSALAVFPNELLWTADVHEYNLNLPVTPAAITYPETAAQIAGVVKCASDYDYKVQARSGGHSFGNYGLGGADGAVVVDMKHFTQFSMDDETYEAVIGPGTTLNDVDIELYNNGKRAMAHGVCPTIKTGGHFTIGGLGPTARQWGLALDHVEEVEVVLANSSIVRASNTQNQDVFFAVKGAAANFGIVTEFKVRTEPAPGLAVQYSYTFNLGSTAEKAQFVKDWQSFISAKNLTRQFYNNMVIFDGDIILEGLFFGSKEQYDALGLEDHFAPKNPGNILVLTDWLGMVGHALEDTILKLVGNTPTWFYAKSLGFRQDTLIPSAGIDEFFEYIANHTAGTPAWFVTLSLEGGAINDVAEDATAYAHRDVLFWVQLFMVNPLGPISDTTYEFTDGLYDVLARAVPESVGHAYLGCPDPRMEDAQQKYWRTNLPRLQELKEELDPKNTFHHPQGVMPA | 59260.52 µg/L |
| t861590 (protein) MGNTTSIAGRDCLISALGGNSALAAFPNELLWTADVHEYNLNLPVTPAAITYPETAEQIAGVVKCASDYDYKVQARSGGHSFGNYGLGGADGAVVVDMKHFTQFSMDDETYEAVIGPGTTLNDVDIELYNNGKRAMAHGVCPTIKTGGHFTIGGLGPTARQWGLALDHVEEVEVVLANSSIVRASNTQNQDVFFAVKGAAANFGIVTEFKVRTEPAPGLAVQYSYTFNLGSTAEKAQFVKDWQSFISAKNLTRQFYNNMVIFDGDIILEGLFFGSKEQYDALGLEDHFAPKNPGNILVLTDWLGMVGHALEDTILKLVGNTPTWFYAKSLGFRQDTLIPSAGIDEFFEYIANHTAGTPAWFVTLSLEGGAINDIAEDATAYAHRDVLFWVQLFMVNPLGPISDTTYEFTDGLYDVLARAVPESVGHAYLGCPDPRMEDAQQKYWRTNLPRLQELKEELDPKNTFHHPQGVMPA | 55852.93 µg/L |
| t861558 (protein) MGNTTSIAGRDCLISALGGNSALAAFPNELLWTADVHEYNLNLPVTPAAITYPETAEQIAGVVKCASDYDYKVQARSGGHSFGNYGLGGADGAVVVDMKHFTQFSMDDETYEAVIGPGTTLNDVDIELYNNGKRAMAHGVCPTIKTGGHFTIGGLGPTARQWGLALDHVEEVEVVLANSSIVRASNTQNQDVFFAVKGAAANFGIVTEFKVRTEPAPGLAVQYSYTFNLGSTAEKAQFVKDWQSFISAKNLTRQFYNNMVIFDGDIILEGLFFGSKEQYDALGLEDHFAPKNPGNILVLTDWLGMVGHALEDTILKLVGNTPTWFYAKSLGFRQDTLIPSAGIDEFFEYIANHTAGTPAWFVTLSLEGGAINDIAEDATAYAHRDVLFWVQLFMVNPLGPISDTTYEFTDGLYDVLARAVPESVGHAYLGCPDPRMEDAQQKYWRTNLPRLQELKEELDPKNTFHHPQGVMPA | 27898.00 µg/L |
| t861574 (protein) MGNTTSIAGRDCLISALGGNSALAAFPNELLWTADVHEYNLNLPVTPAAITYPETAEQIAGIVKCASDYDYKVQARSGGHSFGNYGLGGADGAVVVDMKHFTQFSMDDETYEAVIGPGTTLNDVDIELYNNGKRAMAHGVCPTIKTGGHFTIGGLGPTARQWGLALDHVEEVEVVLANSSIVRASNTQNQDVFFAVKGAAANFGIVTEFKVRTEPAPGLAVQYSYTFNLGSTAEKAQFVKDWQSFISAKNLTRQFYNNMVIFDGDIILEGLFFGSKEQYDALGLEDHFAPKNPGNILVLTDWLGMVGHALEDTILKLVGNTPTWFYAKSLGFRQDTLIPSAGIDEFFEYIANHTAGTPAWFVTLSLEGGAINDIAEDATAYAHRDVLFWVQLFMVNPLGPISDTTYEFTDGLYDVLARAVPESVGHAYLGCPDPRMEDAQQKYWRTNLPRLQELKEELDPKNTFHHPQGVMPA | 38142.03 µg/L |
| t861589 (protein) MGNTTSIAGRDCLISALGGNSALAVFPNELLWTADVHEYNLNLPVTPAAITYPETAAQIAGVVKCASDYDYKVQARSGGHSFGNYGLGGADGAVVVDMKHFTQFSMDDETYEAVIGPGTTLNDVDIELYNNGKRAMAHGVCPTIKTGGHFTIGGLGPTARQWGLALDHVEEVEVVLANSSIVRASNTQNQDVFFAVKGAAANFGIVTEFKVRTEPAPGLAVQYSYTFNLGSTAEKAQFVKDWQSFISAKNLTRQFYNNMVIFDGDIILEGLFFGSKEQYDALGLEDHFAPKNPGNILVLTDWLGMVGHALEDTILKLVGNTPTWFYAKSLGFRQDTLIPSAGIDEFFEYIANHTAGTPAWFVTLSLEGGAINDVAEDATAYAHRDVLFWVQLFMVNPLGPISDTTYEFTDGLYDVLARAVPESVGHAYLGCPDPRMEDAQQKYWRTNLPRLQELKEELDPKNTFHHPQGVMPA | 95796.21 µg/L |
| t861554 (protein) MGNTTSIAAGRDCLISAVGAANVAFQDQLLYQATAVQPYNLNIPVTPAAVTYPQSADEIAAVVKCASEYGYKVQARSGGHSFGNYGLGGQDGAIVIEMKHFSQFSMDESTFIATIGPGITLGDLDTDLYNAGHRAMAHGICPTIRTGGHLTVGGLGPTARQWGLALDHVEEVEVVLANSSIVRASDTQNQDLFFAIKGAAASFGIVTEFKVRTEQAPGMAVQYSYTFHLGTSAEKAKFVKDWQAFIAQENLTWKFYTNLVIFDDQIILEGIYFGTKEEYDSLGLEQRFPPTDAGTVLILTDWLAMIGHGLEDTILKLVGDTPTWFYAKSLGFTPRALIPDSAIDEFFDYIHENNPGTLAWFVTLSLEGGAINAVPEDATAYGHRDVLFWFQLFVINPLGPISQTTYGFADGLYDVLAQAVPESASHAYMGCPDPRMPNAQRAYWRSNLPKLEELKGYLDPEDIFHNPQGVVPS | 5334.71 µg/L |
